Legend:
[1] = target: His-PSMA (Sino Biological) (human) (UniProt Q04609); experiment: ELISA, PSMA immobilized by its His tag, PCC titrated in solution
[2] = target: PSMA-Myc-Flag (Origene) (human) (UniProt Q04609); experiment: ELISA, PSMA immobilized by its Myc-Flag tag, PCC titrated in solution
[3] = target: recombinant PSMA protein (human) (UniProt Q04609); experiment: ELISA on PSMA
Sequence of recombinant PSMA protein (human) (Q04609 44-750 limits assumed): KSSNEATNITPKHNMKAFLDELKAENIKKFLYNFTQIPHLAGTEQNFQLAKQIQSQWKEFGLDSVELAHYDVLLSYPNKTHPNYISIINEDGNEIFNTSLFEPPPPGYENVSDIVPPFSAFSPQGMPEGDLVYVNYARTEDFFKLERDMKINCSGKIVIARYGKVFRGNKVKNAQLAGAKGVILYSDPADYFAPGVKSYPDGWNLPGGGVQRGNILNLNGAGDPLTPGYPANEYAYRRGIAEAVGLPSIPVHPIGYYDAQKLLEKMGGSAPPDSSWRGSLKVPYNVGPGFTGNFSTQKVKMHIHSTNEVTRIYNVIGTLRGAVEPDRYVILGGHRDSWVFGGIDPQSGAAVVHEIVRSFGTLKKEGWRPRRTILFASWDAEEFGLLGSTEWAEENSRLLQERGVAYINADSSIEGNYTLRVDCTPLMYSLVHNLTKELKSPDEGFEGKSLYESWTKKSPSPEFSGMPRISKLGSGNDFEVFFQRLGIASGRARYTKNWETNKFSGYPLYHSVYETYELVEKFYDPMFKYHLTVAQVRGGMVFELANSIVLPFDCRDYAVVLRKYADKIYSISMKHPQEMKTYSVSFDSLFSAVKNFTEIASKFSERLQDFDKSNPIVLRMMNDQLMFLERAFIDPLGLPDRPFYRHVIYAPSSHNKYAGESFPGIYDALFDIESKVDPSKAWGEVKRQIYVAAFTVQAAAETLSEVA

Sequence of His-PSMA (Sino Biological) (human) (Q04609 44-750 limits assumed): as above
Sequence of PSMA-Myc-Flag (Origene) (human) (Q04609 whole entry): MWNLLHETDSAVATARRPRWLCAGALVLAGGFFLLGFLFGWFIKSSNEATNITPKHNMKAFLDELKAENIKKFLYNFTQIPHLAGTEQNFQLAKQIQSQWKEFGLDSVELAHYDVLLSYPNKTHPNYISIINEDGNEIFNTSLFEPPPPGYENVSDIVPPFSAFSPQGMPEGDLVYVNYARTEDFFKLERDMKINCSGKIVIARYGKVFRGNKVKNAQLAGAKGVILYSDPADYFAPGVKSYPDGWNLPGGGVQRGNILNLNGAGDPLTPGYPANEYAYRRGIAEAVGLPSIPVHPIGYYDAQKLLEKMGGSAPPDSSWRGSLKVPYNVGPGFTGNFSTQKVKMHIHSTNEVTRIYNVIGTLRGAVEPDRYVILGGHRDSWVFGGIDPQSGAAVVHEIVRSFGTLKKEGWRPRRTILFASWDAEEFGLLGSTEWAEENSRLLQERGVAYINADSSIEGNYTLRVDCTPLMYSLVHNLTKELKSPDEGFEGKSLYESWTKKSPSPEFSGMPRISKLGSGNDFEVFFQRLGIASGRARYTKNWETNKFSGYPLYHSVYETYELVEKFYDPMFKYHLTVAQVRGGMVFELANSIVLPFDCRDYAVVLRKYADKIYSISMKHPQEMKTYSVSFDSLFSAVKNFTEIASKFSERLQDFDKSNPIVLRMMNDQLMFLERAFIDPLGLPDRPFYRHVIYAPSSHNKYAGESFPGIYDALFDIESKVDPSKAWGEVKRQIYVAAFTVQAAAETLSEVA

Row | EC50 [1] [nM] | EC50 [2] [nM] | EC50 [3] [nM] | Substance
1 | 872 | 662 |  | hreww (SEQ ID NO:10) (peptide)
2 |  |  | 5580 | hnwlG (SEQ ID NO:19) (peptide)
3 |  |  | 8.6 | lfkhh (SEQ ID NO:16) (peptide)

From US20200147244A1
